Columns and labels:
[1] = target: collagen Type I (purified from rat tail) (rat), P02454; test: ELISA; host protein coated on microtiter wells; recombinant protein varied from 0 to 2 μM; absorbance with BSA subtracted; apparent Kd from the half-maximal binding concentration (GraphPad Prism 6); details: remark: other sources report otherwise
[2] = target: T1, fibrinogen (purified from human plasma) (human), P02671; test: as above; details: remark: other sources report otherwise
T1 chain 1: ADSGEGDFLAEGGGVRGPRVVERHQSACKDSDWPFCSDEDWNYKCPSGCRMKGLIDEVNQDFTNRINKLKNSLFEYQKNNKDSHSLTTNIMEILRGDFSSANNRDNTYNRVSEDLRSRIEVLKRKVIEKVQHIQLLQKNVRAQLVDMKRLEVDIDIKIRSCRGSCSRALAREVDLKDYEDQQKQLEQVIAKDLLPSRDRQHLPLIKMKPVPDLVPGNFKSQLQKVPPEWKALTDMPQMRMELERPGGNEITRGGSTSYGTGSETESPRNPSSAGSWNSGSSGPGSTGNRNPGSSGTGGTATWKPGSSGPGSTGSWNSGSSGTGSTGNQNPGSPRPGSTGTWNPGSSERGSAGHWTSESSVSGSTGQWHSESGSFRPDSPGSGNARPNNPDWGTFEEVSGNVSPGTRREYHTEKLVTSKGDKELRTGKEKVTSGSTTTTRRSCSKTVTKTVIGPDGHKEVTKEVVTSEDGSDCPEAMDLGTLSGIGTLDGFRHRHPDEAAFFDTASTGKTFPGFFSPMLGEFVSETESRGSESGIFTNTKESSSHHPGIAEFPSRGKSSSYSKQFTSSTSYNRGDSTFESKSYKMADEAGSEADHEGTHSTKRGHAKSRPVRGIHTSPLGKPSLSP
T1 chain 2: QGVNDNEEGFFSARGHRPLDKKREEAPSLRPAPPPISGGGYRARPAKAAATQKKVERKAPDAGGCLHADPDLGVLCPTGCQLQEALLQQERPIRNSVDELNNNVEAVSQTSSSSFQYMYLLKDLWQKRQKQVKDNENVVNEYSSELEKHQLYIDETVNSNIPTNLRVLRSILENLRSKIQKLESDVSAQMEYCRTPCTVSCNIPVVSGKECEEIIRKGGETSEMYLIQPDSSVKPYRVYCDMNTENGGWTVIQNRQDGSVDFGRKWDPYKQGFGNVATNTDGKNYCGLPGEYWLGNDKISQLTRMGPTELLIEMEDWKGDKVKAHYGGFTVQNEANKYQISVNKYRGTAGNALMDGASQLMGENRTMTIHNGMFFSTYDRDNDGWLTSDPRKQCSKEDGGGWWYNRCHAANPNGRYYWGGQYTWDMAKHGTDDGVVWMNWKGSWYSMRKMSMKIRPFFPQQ
T1 chain 3: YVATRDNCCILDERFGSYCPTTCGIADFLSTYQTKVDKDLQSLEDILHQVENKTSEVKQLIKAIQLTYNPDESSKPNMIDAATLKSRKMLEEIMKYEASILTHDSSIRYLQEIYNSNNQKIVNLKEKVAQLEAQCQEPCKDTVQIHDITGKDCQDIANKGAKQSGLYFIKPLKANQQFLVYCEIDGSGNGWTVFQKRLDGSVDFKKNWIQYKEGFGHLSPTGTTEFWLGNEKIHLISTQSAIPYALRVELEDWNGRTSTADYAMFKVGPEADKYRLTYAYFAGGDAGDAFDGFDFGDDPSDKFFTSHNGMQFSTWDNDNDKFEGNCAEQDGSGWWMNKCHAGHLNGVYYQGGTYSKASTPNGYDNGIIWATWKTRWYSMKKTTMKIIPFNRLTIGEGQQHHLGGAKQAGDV

B1: GroEL protein of Leptospira interrogans (recombinant, His-tagged), P61438 1-546 (natural protein)
chain: MAKDIEYNETARRKLLEGVNKLANAVKVTLGPKGRNVVIDKKFGAPTITKDGVTVAKEIELEDPLENMGAQMVKEVSTKTNDVAGDGTTTATILAQSIINEGLKNVTAGANPMSLKKGIDKAVTAAVESIQKRAVKIENKKDIANVASISANNDNTIGNLIADAMDKVGKDGVITVEEAKSIETTLDVVEGMQFDRGYISPYMVTDAESMVATLNDPFILIYDKKISSMKDLIHILEKVAQAGKPLVIISEEVEGEALATIVVNTLRKTISCVAVKAPGFGDRRKSMLEDIAILTGGQVISEDLGMKLENTTLQMLGRANKVTVDKENTTIIEGKGQTKEIQGRIGQIKKQIEDTTSEYDREKLQERLAKLAGGVAVIHVGAATEVEMKEKKARVEDALSATRAAVEEGIVPGGGLTLLKAQEAVGSLKLDGDEATGAKIIFRALEEPIRMITSNAGLEGSVIVEHAKAKKGNEGFNALTMVWEDMIQAGVVDPAKVVRSALQNAASIGSMILTTEVTITDKPDKDAPNPMAGMGGGGMGGMGGMM
What does the source list for B1?
Kd [1]: 11 nM; Kd [2]: 23 nM

Source: PMC8011160
